Reference: patent US20080009458

System: p53

In the case of GST-COP1, the “in vitro ubiquitination of p53 (immunoblot of ubiquitinated species of p53)” value is reported as “Only with all of the reaction components and p53 present was COP1 able to directly ubiquitinate p53”.
